In article PMC4175270:

What was measured:
[1] = molecular target: His6-MobC1-129 (plasmid RA3 (IncU), isolated from Aeromonas hydrophila); assay: cross-linking; His-tagged MobC derivatives (0.1 mg ml^-1) with 0.001%, 0.005% and 0.01% glutaraldehyde; 20% SDS-PAGE, Western blot with anti-His tag antibodies
[2] = molecular target: His6-MobC1-129 (plasmid RA3 (IncU), isolated from Aeromonas hydrophila); assay: SEC-MALS; gel filtration on Superdex 200 10/300 GL with UV, MALS and refractometer in line; 10 mM Tris pH 8.0, 150 mM NaCl; 0.5 ml of His6-MobC at 0.24 mg ml^-1 or His6-MobC1-129 at 0.04 mg ml^-1; no higher oligomers of MobC detected
[3] = molecular target: His6-MobC (WT MobC of plasmid RA3) (plasmid RA3 (IncU), isolated from Aeromonas hydrophila); assay: as above

| Substance | stoichiometry N [1] | stoichiometry N [2] | stoichiometry N [3] |
| --- | --- | --- | --- |
| His6-MobC1-129 (domain or fragment) | 2 | 2 |  |
| His6-MobC (WT MobC of plasmid RA3) (natural protein) |  |  | 2 |
